Assay results taken from patent US20100099619A1.

Molecular target: neuropeptide Y4 receptor
Assay: competition vs [125I]-hPP, Y4-transfected CHO-K1 membranes

neuropeptide Y4 receptor, sequence (P50391 whole entry): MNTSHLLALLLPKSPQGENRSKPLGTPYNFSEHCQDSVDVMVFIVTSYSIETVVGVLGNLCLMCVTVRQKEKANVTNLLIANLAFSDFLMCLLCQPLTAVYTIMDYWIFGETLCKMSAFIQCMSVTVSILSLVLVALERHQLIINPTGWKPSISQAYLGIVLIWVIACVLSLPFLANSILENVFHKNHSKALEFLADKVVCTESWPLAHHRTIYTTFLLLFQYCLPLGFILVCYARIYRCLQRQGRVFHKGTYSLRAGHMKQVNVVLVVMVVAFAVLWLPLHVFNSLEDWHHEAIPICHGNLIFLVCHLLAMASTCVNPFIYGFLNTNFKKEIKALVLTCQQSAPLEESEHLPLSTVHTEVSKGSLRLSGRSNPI

Row | Substance | Y4 RBA [nM]
1 | NPY (human neuropeptide Y) (peptide; modification not given) | 39
2 | PYY (human peptide YY) (peptide; modification not given) | 4.5
3 | PYY(3-36) (peptide; modification not given) | 54
